Results reported in paper PMC4335507.

Molecular target: GST-Ran Q69L, GTP-bound (UniProt Q9VZ23)
Assay: pull-down; GST-Ran loaded with GDP or GST-Ran Q69L loaded with GTP γS, or GST alone, on beads incubated with TIM-V5 expressed in S2 cells, 4 h at 4°C; bound TIM-V5 detected with anti-V5

- ratio of binding, Ran GTP over Ran GDP: 1.64
Substance: V5-tagged wild-type TIM (TIMELESS) (from UniProt P49021 1-1398) (natural protein)
